Data taken from US20200087405A1 (UNIVERSITY OF SASKATCHEWAN, published 2020).

Columns and labels:
[1] = molecular target: T1, Fc-tagged extracellular domain (ECD) of the recombinant human EGFR (rhEGFR) (human, UniProt P00533 25-645); assay: apparent affinity by multi-point competitive ELISA using purified EGFR, Fab-phage; Fab-phage, first account of the DL06 selection
T1 construct: extracellular domain; also called rhEGFR-ECD; rhEGFR-ECD-Fc; not shown: Fc tag of the bought protein (R&D 344-ER)

[2] = molecular target: T2, Fc-tagged ECD of ErbB4 (ErbB family member, R&D 1131-ER) (human, UniProt Q15303 26-651); assay: single point Fab-phage ELISA on immobilized protein
T2 construct: extracellular domain; not shown: Fc tag of the bought protein
T2 sequence (looked up): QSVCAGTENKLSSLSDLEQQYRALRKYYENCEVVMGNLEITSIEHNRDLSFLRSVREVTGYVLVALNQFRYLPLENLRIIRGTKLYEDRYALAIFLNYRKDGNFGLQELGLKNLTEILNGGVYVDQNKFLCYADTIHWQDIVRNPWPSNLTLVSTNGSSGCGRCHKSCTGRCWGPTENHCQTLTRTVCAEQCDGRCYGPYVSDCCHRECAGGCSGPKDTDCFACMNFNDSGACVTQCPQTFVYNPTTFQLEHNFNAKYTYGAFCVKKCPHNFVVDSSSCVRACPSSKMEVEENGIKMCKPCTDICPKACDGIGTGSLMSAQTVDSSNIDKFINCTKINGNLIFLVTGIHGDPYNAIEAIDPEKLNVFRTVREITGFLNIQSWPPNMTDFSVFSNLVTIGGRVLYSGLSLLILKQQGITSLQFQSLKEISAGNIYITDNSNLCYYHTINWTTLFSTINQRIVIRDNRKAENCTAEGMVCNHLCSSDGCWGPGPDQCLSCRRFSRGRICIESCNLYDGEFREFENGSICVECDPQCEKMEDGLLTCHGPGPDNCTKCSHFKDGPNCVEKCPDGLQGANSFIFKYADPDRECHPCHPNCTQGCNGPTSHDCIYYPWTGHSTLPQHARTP

[3] = molecular target: T3, Fc-tagged ECD of ErbB3 (R&D 348-RB) (human, UniProt P21860 20-643); assay: as above
T3 construct: extracellular domain; also called ErbB family member; not shown: Fc tag of the bought protein

[4] = molecular target: T4, Fc-tagged ECD of ErbB2 (ErbB family member, R&D 1129-ER) (human, UniProt P04626 23-652); assay: as above
T4 construct: extracellular domain; not shown: Fc tag of the bought protein

[5] = molecular target: T5, cell-surface EGFR (endogenous on A431, MDA-MB-231 and other cancer cell lines); pBABE-EGFR transfected 293T … (UniProt P00533 25-1210, limits assumed); assay: flow cytometry on A431 cells, 800CW-labelled fragment
T5 construct: whole, on cells; Untagged EGFR on cells; also called endogenous cell-surface EGFR; EGFR1

- Kd [1]: > 0.1 µM
- binding result [2]: no binding
- binding result [3]: binds
- binding result [4]: no binding
- Kd [5]: > 1 µM
B1: Fab DL06 (Fab)
heavy: EVQLVESGGGLVQPGGSLRLSCAASGFNISSSSIHWVRQAPGKGLEWVAYISSYYSSTYYADSVKGRFTISADTSKNTAYLQMNSLRAEDTAVYYCARTYCPPLMLYNPTTYQMDVNPEGKYSFGATCGWAMDYWGQGTLVTVSSASTKGPSVFPLAPSSKSTSGGTAALGCLVKDYFPEPVTVSWNSGALTSGVHTFPAVLQSSGLYSLSSVVTVPSSSLGTQTYICNVNHKPSNTKVDKKVEPKSCDKTHT
light: DIQMTQSPSSLSASVGDRVTITCRASQSVSSAVAWYQQKPGKAPKLLIYSASSLYSGVPSRFSGSRSGTDFTLTISSLQPEDFATYYCQQWSYYPITFGQGTKVEIKRTVAAPSVFIFPPSDSQLKSGTASVVCLLNNFYPREAKVQWKVDNALQSGNSQESVTEQDSKDSTYSLSSTLTLSKADYEKHKVYACEVTHQGLSSPVTKSFNRGECGGSDYKDDDDK
notes: Fab with the EGFR dimerization loop grafted in CDR-H3; the light chain entry ends in a FLAG tag; also called DL06 Fab; parent clone DL06
